The record followed here is patent US20190112375A1 (Bristol-Myers Squibb, published 2019).

The target in test [1] is T1, human TIGIT on cells (human, UniProt Q495A1 22-244).
T1 construct: also called huTIGIT on Jurkat cells; Jurkat/hTIGIT
T1 sequence: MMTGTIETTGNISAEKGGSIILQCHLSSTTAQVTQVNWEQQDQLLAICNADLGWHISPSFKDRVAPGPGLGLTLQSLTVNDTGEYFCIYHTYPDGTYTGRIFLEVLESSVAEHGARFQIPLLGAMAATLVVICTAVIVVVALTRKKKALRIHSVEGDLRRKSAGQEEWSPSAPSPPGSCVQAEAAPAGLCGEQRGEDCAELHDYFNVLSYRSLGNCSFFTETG
Put plainly: binding to human CD8+ T cells; human CD8+ T cells.

The target of test [2] is T1, human TIGIT on cells. Put plainly: method not stated; follows the sentence on TIGIT expressed on CHO cells; human TIGIT; KD, method not stated.
Test [3] concerns the target T2, human TIGIT (soluble, SPR; construct not stated) (human, UniProt Q495A1 22-141, limits assumed).
T2 construct: whole entry named; also called huTIGIT
T2 sequence: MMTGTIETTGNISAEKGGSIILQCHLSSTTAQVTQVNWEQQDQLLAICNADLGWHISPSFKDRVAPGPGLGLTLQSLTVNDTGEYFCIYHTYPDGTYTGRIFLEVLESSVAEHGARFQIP
The experiment in a line: SPR.

The target in test [4] is T3, cynomolgus monkey TIGIT on cells (cynomolgus monkey, UniProt A0A7N9I9V4 89-312).
T3 construct: whole, on cells; also called TIGIT from cynomolgus monkeys expressed on CHO cells; cyno TIGIT on primary cells
Put plainly: binding to monkey CD8+ T cells; monkey CD8+ T cells; lower end of the range.

Test [5] addresses T4, huTIGIT-muFc fusion protein (human; mouse, UniProt Q495A1 22-141).
T4 construct: also called TIGIT-mFc; not shown: mouse IgG2a Fc, at the C-terminus of the TIGIT part
T4 sequence: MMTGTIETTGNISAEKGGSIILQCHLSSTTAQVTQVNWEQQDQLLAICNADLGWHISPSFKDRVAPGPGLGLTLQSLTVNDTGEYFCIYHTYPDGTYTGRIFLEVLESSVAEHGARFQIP
Put plainly: blockade of TIGIT-mFc (at its EC90, 14.1 nM) binding to P815 cells over-expressing human PVR; competitor: human PVR; P815 cells over-expressing human PVR; TIGIT-mFc at EC90 14.1 nM.

In test [6] the target is T3, cynomolgus monkey TIGIT on cells. The experiment in a line: method not stated; follows the sentence on TIGIT expressed on CHO cells; monkey TIGIT; KD, method not stated.
The target in test [7] is T4, huTIGIT-muFc fusion protein. Put plainly: blockade of TIGIT-mFc (at its EC90, 12.8 nM) binding to P815 cells over-expressing human Nectin-2; competitor: human Nectin-2; P815 cells over-expressing human Nectin-2; TIGIT-mFc at EC90 12.8 nM.
The target of test [8] is hCD16a-V158 (FcγRIIIA-V158) (human, UniProt P08637 17-208). Put plainly: Fcγ receptor binding as % of theoretical maximum response (% Rmax), two lots, two concentrations (10 µM, 1 µM); no negative control shown.
For test [9], the target named is hCD16b-NA2 (FcγRIIIB-NA2) (human, UniProt O75015 17-200, limits assumed). The test is described as above.
For test [10], the target named is T5, hCD32a-H131 (FcγRIIA-H131) (human, UniProt P12318 36-218, limits assumed).
T5 sequence (looked up): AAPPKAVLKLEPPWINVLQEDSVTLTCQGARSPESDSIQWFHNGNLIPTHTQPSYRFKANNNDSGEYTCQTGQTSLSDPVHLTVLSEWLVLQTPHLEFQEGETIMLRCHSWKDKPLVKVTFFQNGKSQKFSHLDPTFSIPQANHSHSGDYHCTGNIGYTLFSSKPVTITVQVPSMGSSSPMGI
The description is as above.

The target of test [11] is T3, cynomolgus monkey TIGIT on cells. The experiment in a line: binding to monkey CD8+ T cells; monkey CD8+ T cells; upper end of the range.

B1: 22G2 IgG1.1f (antibody)
heavy: QVHLQESGPGLVKPSETLSLTCTVSGGSVSSGIYYWSWIRQPPGKGLEWIGYIYYSGSTNYNPSLKSRVTISVDTSKNQFSLKLSSVTAADTAVYYCARDYYVSGNYYNVDYYFFGVDVWGQGTTVTVSSASTKGPSVFPLAPSSKSTSGGTAALGCLVKDYFPEPVTVSWNSGALTSGVHTFPAVLQSSGLYSLSSVVTVPSSSLGTQTYICNVNHKPSNTKVDKRVEPKSCDKTHTCPPCPAPEAEGAPSVFLFPPKPKDTLMISRTPEVTCVVVDVSHEDPEVKFNWYVDGVEVHNAKTKPREEQYNSTYRVVSVLTVLHQDWLNGKEYKCKVSNKALPSSIEKTISKAKGQPREPQVYTLPPSREEMTKNQVSLTCLVKGFYPSDIAVEWESNGQPENNYKTTPPVLDSDGSFFLYSKLTVDKSRWQQGNVFSCSVMHEALHNHYTQKSLSLSPG
light: not shown
notes: effectorless IgG1.1f (L234A, L235E, G237A, A330S, P331S, EU numbering); also called anti-TIGIT mAb 22G2 IgG1.1f; antibody 22G2 IgG1.1f; copies: 2 + 2
On to B1, for which the EC50 was 0.55 nM in [1], not below 0.28 nM in test [4] and not above 0.58 nM in [11]. Moreover, the Kd in test [2] came out at 0.09 nM; in [3], 0.07 nM; in [6], 0.07 nM. The molecule also showed a koff in [3] of 0.00013 s⁻¹. Moreover, the kon in test [3] was found to be 2e+06 M⁻¹ s⁻¹. The figures for the IC50 in test [5] and in test [7] were 15.4 nM and 5.72 nM, respectively. In addition, the binding result in [8], in test [9] and in test [10] was “no binding (tested: 10 µM)” throughout.

Usually EC50 stands for the concentration that produces a half-maximal response. The term Kd denotes the free concentration of one partner at which half of the binding sites on the other are occupied at equilibrium, for simple one-to-one binding. For orientation: koff means a measure of how fast the partners let go of each other. Broadly, the kon is the second-order rate constant of association. For orientation: IC50 means the concentration at which inhibition is half-maximal.
